How the values were obtained:
CmLDH1 [1] = target: T1, CmLDH1 (Cyanidioschyzon merolae, UniProt M1V6D8); assay: NADH oxidation at […] nm, relative activity; type: biochemical; conditions: activation; 5 mM FBP, 0.20 mM pyruvate, 0.05 mM NADH, pH 7.0, 57 °C
T1 construct: gene CYME_CMA145C; full length, 354 residues; E. coli BL21(DE3)
T1 sequence (M1V6D8 1-354): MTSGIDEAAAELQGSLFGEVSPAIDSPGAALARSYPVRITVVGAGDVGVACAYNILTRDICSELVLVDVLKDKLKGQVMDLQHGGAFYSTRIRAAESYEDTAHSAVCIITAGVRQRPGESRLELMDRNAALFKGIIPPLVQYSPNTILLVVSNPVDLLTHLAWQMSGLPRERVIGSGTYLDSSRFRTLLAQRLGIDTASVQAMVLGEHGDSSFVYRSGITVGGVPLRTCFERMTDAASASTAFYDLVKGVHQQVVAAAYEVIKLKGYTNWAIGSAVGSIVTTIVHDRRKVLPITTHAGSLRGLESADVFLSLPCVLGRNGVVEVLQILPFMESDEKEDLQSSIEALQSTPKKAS

CmLDH1 [2] = target: T1, CmLDH1; assay: NADH oxidation at […] nm, relative activity; type: biochemical; conditions: inhibition, 0.20 mM pyruvate, 0.05 mM NADH, pH 7.0, 57 °C
purified protein [3] = substrate: CC(=O)C(=O)O; assay: purified protein; type: biochemical, Cyanidioschyzon merolae; conditions: 0.15 mM NADH, pH 4.5 (optimum), 57 °C, no effector
purified protein [4] = substrate: NC(=O)C1=CN([C@@H]2O[C@H](COP(=O)(O)OP(=O)(O)OC[C@H]3O[C@@H](n4cnc5c(N)ncnc54)[C@H](O)[C@@H]3O)[C@@H](O)[C@H]2O)C=CC1; assay: purified protein; type: biochemical, Cyanidioschyzon merolae; conditions: 2 mM sodium pyruvate, pH 4.5 (optimum), 57 °C, no effector

Q: For `O=P(O)(O)OC[C@H]1OC(O)(COP(=O)(O)O)[C@@H](O)[C@@H]1O` (stereo partly drawn) [FBP], which “relative activity at 5 mM” value (CmLDH1 [1]) is on record?
A: 1.2 fold

Q: For `Nc1ncnc2c1ncn2[C@@H]1O[C@H](COP(=O)(O)OP(=O)(O)O)[C@@H](O)[C@H]1O` [ADP], which relative activity (CmLDH1 [2]) is on record?
A: ATP and ADP (particularly ATP) decreased CmLDH1 activity

Q: Which relative activity (CmLDH1 [2]; mixed inhibitor for NADH) does the source give for `Nc1ncnc2c1ncn2[C@@H]1O[C@H](COP(=O)(O)OP(=O)(O)OP(=O)(O)O)[C@@H](O)[C@H]1O` [ATP] here?
A: ATP and ADP (particularly ATP) decreased CmLDH1 activity

B1: CmLDH1 (Cyanidioschyzon merolae strain 10D) (protein)
chain: T1 sequence (M1V6D8 1-354)
notes: full length, 354 residues; E. coli BL21(DE3)
Q: B1 was tested. Which K0.5 (purified protein [3]) did it give?
A: 0.13 ± 0.005 mM

Q: What about the kcat (purified protein [3]) of the same molecule?
A: 314 ± 3 s⁻¹

Q: What about the kcat/Km (purified protein [3]) of the same molecule?
A: 2.46e+06 ± 75000 M⁻¹ s⁻¹

Q: And the K0.5 (purified protein [4])?
A: 0.011 ± 0.0006 mM

Q: What about the kcat (purified protein [4]) of the same molecule?
A: 324 ± 6 s⁻¹

Q: And the kcat/Km (purified protein [4])?
A: 2.95e+07 ± 1.05e+06 M⁻¹ s⁻¹

— article PMC11387445, “L-Lactate dehydrogenase from Cyanidioschyzon merolae shows high catalytic efficiency for pyruvate reduction and is inhibited by ATP” (Plant Molecular Biology, 2024)
